Laboratory results from patent US20140329787A1, “PHYTOPHTHORA PHOSPHOLIPASE C” (Deakin University, priority 2011, published 2014).
“Also recorded” adds a separate entry of the source.

Assays:
[1] = Hydrolysis of PIPx, neutral-lipid TLC; format: biochemical; conditions: 0.2 mg/ml enzyme
Description: Lipid samples of 0.5 μl were applied to silica 60 TLC plates and allowed to dry prior to the addition of more sample. Neutral lipids were applied to 10×20 cm pre-absorption zone-bearing silica-60 plates (Sigma-Aldrich, USA) and resolved in a solvent mixture of hexane:diethyl ether:acetic acid (9:1:0.5). Phospholipids were resolved on 20×20 cm silica-60 plates (Merck, Australia), without a pre-absorption zone, in a solvent mixture of chloroform:methanol:acetic acid:water (90:40:12:2). Lipids were detected by spraying the dried TLC plates with a solution of 0.05% rhodamine B (Sigma) in methanol and destaining was performed by repeated spraying with 5 M KOH. Lipid spots were then visualised following UV excitation at 312 nm.
Alt-PLC and Alt-PLC2 were refolded into buffer A4 at a concentration of 0.2 mg/ml and a hydrolysis reaction was performed using PIPx (mixed phosphatidylinositols, Sigma) as the substrate. The reaction was performed as described previously and the resultant neutral lipids were extracted by diethyl ether phase extraction. The samples were analysed by neutral-lipid thin-layer chromatography, on silica 60 plates with a pre-absorption zone; the mobile phase employed was hexane: diethyl ether: acetic acid (9:1:0.5).

[2] = system: E. coli; experiment: Growth curves of E. coli expressing Alt-PLC and truncations; format: cell-based; conditions: relative to E. coli not expressing Alt-PLC
Description: An analysis of function of the Alt-PLC truncations was performed using growth curves of Alt-PLC expressing E. coli cells (FIG. 28).
Therefore, growth curves of E. coli expressing Alt-PLC and the truncations allow determination of Alt-PLC function in vivo.

Molecule	monoacylglycerol production / phospholipase C activity level in vitro [1]	growth of expressing E. coli (function in vivo) [2]
Alt-PLC2: Phytophthora sojae Alt-PLC with the additional 35aa fragment in the RAS-GEF domain, SEQ ID NO: 14 (protein, listed as Phytophthora sojae) MASGWRQKPRLDPWDPPSPPPLLEEAAPKPKPKTSRFSRRSTRAKSHARQQAQHVELEREKAFRLVRHGSDPLLNDAFYATQVQVGNFVKMGWLTKQGHMWKSWKTRFFVLFSDGTFAYYKNKGRKKIKGCMQLNDGVVSVQHVDIRLADKAYVFQIEKGFYKLLCYCCSQFEAELWVAALRSVRRVAPPCYEMDLTATEEKAGSNAVTRHLNKIFITDKQIAKRLAEFKANTHDHSYAAIHNFIVELDDAIIDRHHLEFYQDAEIELLPGNELVRLIRRHVEDRVFIPLYAEAYASLETDKVKTRRSNLEQHLKVLKQKTQADFGISKDLSVCNWKQAISVVNMLDCVSLPTHKFEVILSAGKAIMELIAQYNGELFEVSDEMLTAIFRYVVTMSSLSDLPTLRALLKYGYQHHPASQNKANVVTAFLNAIKWVECFEAGDESYQFDSLALAGSRVSVSISTNDVGIQFTTDGNGRGAIVYNIRKQSQAALSAAIVPGLSLIAINHEPVIGMPFDKIIQRVRTAALPKQLTFMTEFYYYQLLSLDSEMYQYLMCIAARRGDLDSAAWMRSSTIELNTLCSWEKSRGKQVFGFTPVSGKGSPLHAAVHNGQLSMVNYLISRGADVNLCNQKGRRPLHVVKQSIDMAMIIQSLIDAGADIDAMEKHGLTPLMFMCSRASLEGSATLLALGADVHCVAWTNGFSALEFAVKSEHTELVELCLSKGANPNAPTLDGNTSLHLAATQANTDIILRLLQGGANPNVQNRYGQTPAALLLASSPGGSSDVRILCLEILTCAGCRLDKRDLFGRQASHLASISRDSHVVDLLRKLGSLNREANGVEIDIFGCSSVDYSHRIEVDKSASYLGSQMPNSSWKMVDKDDHVSRSARPGSVDDLIRELVAGTEVDLVDVVSFVLFLDSFSSLNEVVDRLSAHVRNGVKSHGLIRLFIVVLLFRQSETKEADDLRDRFYSLISLNIDAKDKLEYFSLRGAGNYAVNYQAIPGMMSKVYGMESGFEPVSSGPFSAHLHRFVDAERWAEQCTLLTHAVFCKIPVRDFIPTGSKKKHSVEFTSIKRWFQHISAFVINAVLVQNTPEERAEVISFYLKVADYCISLHNHDTLASILYALQSTAVQRLRKTIDCLSLDAKKMMNEMQLLSDKGCREMNRLMRKTANPSMPYIGLYLQGFVGLNELPAFDKEGLVNANRLRRMGELAMEILHRQSVAYTLQHDEDVNKLLHVSLPYSSEESRYARSLELEPREADAIPLSDRGSYTLIDDDVDLENEVRESIGGDGTFGFRQWIRKQQVVHRNRSRSSVIALY	detection of monoacylglycerol production	same reduced growth rate shown by cells expressing Alt-PLC1
t1: truncated Phytophthora sojae Alt-PLC1, SEQ ID NO: 17 (protein, Derived from Phytophthora sojae) YQFDSLALAGSRVSVSISTNDVGIQFTTDGNGRGAIVYNIRKQSQAALSAAIVPGLSLIAINHEPVIALEFAVKIDYSHRIEVDKSASYLGSQMPNSSWKMVDKDDHVSRSARPGSVDDLIRELVAGTEVDLVDVVSFVLFLDSFSSLNEVVDRLSAHVRNGVKSHGLIRLFIVVLLFRQSETKEADDLRDRFYSLISLNIDAKDKLVPLVEEYMSLYKEYFSLRGAGNYAVNYQAIPGMMSKVYGMESGFEPVSSGPFSAHLHRFV	–	reduced growth of E. coli
t2: truncated Phytophthora sojae Alt-PLC1, SEQ ID NO: 18 (protein, Derived from Phytophthora sojae) YQFDSLALAGSRVSVSISTNDVGIQFTTDGNGRGAIVYNIRKQSQAALSAAIVPGLSLIAINHEPVIALEFAVKIDYSHRIEVDKSASYLGSQMPNSSWKMVDKDDHVSRSARPGSVDDLIRELVAGTEVDLVDVVSFVLFLDSFSSLNEVVDRLSAHVRNGVKSHGLIRLFIVVLLFRQSETKEADDLRDRFYSLISLNIDAKDKLVPLVEEYMSLYKEYFSLRGAGNYAVNYQAIPGMMSKVYGMESGFEPVSSGPFSAHLHRFVHPFIQRNHAATATVTMHHLLFTNPLTKAKGAIAANAFTHFVFQIHIIINQGIAATIAQRNRIRFTRFQFQATRITAFFAAIRQAHMQQFVHIFIMLQGIRHALTMQNFHRQFAHTTQTVRVHQAFFIKRRQFVQAHKALQIQANIRHARVRGFTHQTVHFTAAFIAQQLHFVHHFLCIQAQFQ	–	reduced growth of E. coli
t3: truncated Phytophthora sojae Alt-PLC1, SEQ ID NO: 19 (protein, Derived from Phytophthora sojae) YQFDSLALAGSRVSVSISTNDVGIQFTTDGNGRGAIVYNIRKQSQAALSAAIVPGLSLIAINHEPVIALEFAVKIDYSHRIEVDKSASYLGSQMPNSSWKMVDKDDHVSRSARPGSVDDLIRELVAGTEVDLVDVVSFVLFLDSFSSLNEVVDRLSAHVRNGVKSHGLIRLFIVVLLFRQSETKEADDLRDRFYSLISLNIDAKDKLVPLVEEYMSLYKEYFSLRGAGNYAVNYQAIPGMMSKVYGMESGFEPVSSGPFSAHLHRFVHPFIQRNHAATATVTMHHLLFTNPLTKAKGAIAANAFTHFVFQIHIIINQGIAATIAQRNRIRFTRFQFQATRITAFFAAIRQAHMQQFVHIFIMLQGIRHALTMQNFHRQFAHTTQTVRVHQAFFIKRRQFVQAHKALQIQANIRHARVRGFTHQTVHFTAAFIAQQLHFVHHFLCIQAQFQIKANHFRTFFRGVLHQHRVNHKRANMLKPTFNAGKFHAMLFLATGRNKITHRNFAKHRMGQQGALFRPTFRI	–	reduced growth of E. coli; also recorded: significantly higher lethality
